Measured values: article PMC12733242, “The Functional Role of Gate Loop Residues in Arrestin Binding to GPCRs” (International Journal of Molecular Sciences, 2025)

Key:
[1] = target: T1, phosphorylated light-activated bovine rhodopsin (bovine, UniProt P02699 1-348, phosphorylated by endogenous rhodopsin kinase (GRK1), on average 2.6 phosphates per rhodopsin (sites not determined; the C-terminus has seven phosphorylatable serines and threonines); regenerated …); assay: radioligand binding; direct binding assay: 1 nM [14C]leucine-labelled arrestin-1 (50 fmol) from cell-free translation incubated with 0.3 μg of P-Rh* or Rh* (7.8 pmol) in 50 mM Tris-HCl pH 7.4, 100 mM potassium acetate, 1 mM EDTA, 1 mM DTT, 5 min at 37 °C under room light; bound arrestin separated with rhodopsin-containing membranes by gel filtration on Sepharose CL-2B at 4 °C, scintillation counting; binding in …; conditions: one partner purified
T1 construct: rhodopsin, bovine, wild type, in native disk membranes; Native protein; also called P-Rh*

[2] = target: T2, unphosphorylated light-activated bovine rhodopsin (bovine, UniProt P02699 1-348, light-activated); assay: as above; conditions: one partner purified
T2 construct: rhodopsin, bovine, wild type, in native disk membranes; Native protein; source: purified bovine rhodopsin in native disk membranes, unphosphorylated
T2 sequence (P02699 whole entry): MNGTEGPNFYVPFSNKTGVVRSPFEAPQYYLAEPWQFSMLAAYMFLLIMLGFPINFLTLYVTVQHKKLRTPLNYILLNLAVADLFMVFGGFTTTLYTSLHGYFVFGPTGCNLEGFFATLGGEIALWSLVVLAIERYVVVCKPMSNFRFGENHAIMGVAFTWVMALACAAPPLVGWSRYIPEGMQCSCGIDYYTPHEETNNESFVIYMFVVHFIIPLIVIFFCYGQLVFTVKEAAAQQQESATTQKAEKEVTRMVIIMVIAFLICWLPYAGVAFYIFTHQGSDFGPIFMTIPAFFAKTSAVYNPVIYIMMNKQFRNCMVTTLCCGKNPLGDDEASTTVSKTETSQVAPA

T1 sequence (P02699 whole entry): as above

increase of binding over WT [1]: 38%
increase of binding over WT [2]: 156%
B1: bovine arrestin-1 with deletion of Gly292 (natural protein)
chain: MKANKPAPNHVIFKKISRDKSVTIYLGKRDYIDHVERVEPVDGVVLVDPELVKGKRVYVSLTCAFRYGQEDIDVMGLSFRRDLYFSQVQVFPPVGASGATTRLQESLIKKLGANTYPFLLTFPDYLPCSVMLQPAPQDVGKSCGVDFEIKAFATHSTDVEEDKIPKKSSVRLLIRKVQHAPRDMGPQPRAEASWQFFMSDKPLRLAVSLSKEIYYHGEPIPVTVAVTNSTEKTVKKIKVLVEQVTNVVLYSSDYYIKTVAAEEAQEKVPPNSSLTKTLTLVPLLANNRERRIALDGKIKHEDTNLASSTIIKEGIDKTVMGILVSYQIKVKLTVSGLLGELTSSEVATEVPFRLMHPQPEDPDTAKESFQDENFVFEEFARQNLKDAGEYKEEKTDQEAAMDE
modifications: [14C]leucine incorporated
notes: arrestin-1, bovine; bovine residue numbers; source: cell-free translation, radiolabelled; translation mix after centrifugation
